Results on 1 substance are retold here after PMC11722267.

The experiment deals with 5-FAM-labelled VISTA WT peptide (fluorescence polarization probe) (human). As to the kind of experiment: fluorescence polarisation. (In general: Fluorescence polarisation rises when a labelled molecule tumbles more slowly, as on binding a larger partner.)
5-FAM-labelled VISTA WT peptide (fluorescence polarization probe) (human), sequence (Q9H7M9 232-258): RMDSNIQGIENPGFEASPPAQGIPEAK

The substance “recombinant NUMB PTB domain (domain or fragment)” came in with a Kd of 5.5 µM.

Usually Kd stands for the constant that tells how readily two partners part at equilibrium. Higher therefore signals lower affinity.
